Substrate: O=S(O)O
Experiment: purified protein
Format: biochemical, Homo sapiens
Conditions: pH 8.0, cytochrome c as electron acceptor, no added chloride

B1: wt hSO (human sulfite oxidase) (Homo sapiens) (protein)
chain: ESTHIYTKEEVSSHTSPETGIWVTLGSEVFDVTEFVDLHPGGPSKLMLAAGGPLEPFWALYAVHNQSHVRELLAQYKIGELNPEDKVAPTVETSDPYADDPVRHPALKVNSQRPFNAEPPPELLTENYITPNPIFFTRNHLPVPNLDPDTYRLHVVGAPGGQSLSLSLDDLHNFPRYEITVTLQCAGNRRSEMTQVKEVKGLEWRTGAISTARWAGARLCDVLAQAGHQLCETEAHVCFEGLDSDPTGTAYGASIPLARAMDPEAEVLLAYEMNGQPLPRDHGFPVRVVVPGVVGARHVKWLGRVSVQPEESYSHWQRRDYKGFSPSVDWETVDFDSAPSIQELPVQSAITEPRDGETVESGEVTIKGYAWSGGGRAVIRVDVSLDGGLTWQVAKLDGEEQRPRKAWAWRLWQLKAPVPAGQKELNIVCKAVDDGYNVQPDTVAPIWNLRGVLSNAWHRVHVYVSP
kcat: 27 ± 2 s⁻¹

— PMC2890295 (Biochemistry, 2010)
